Measurements taken from paper PMC10786891, “Massively parallel profiling of RNA-targeting CRISPR-Cas13d”.
Changes are numbered by the printed parent chain. Names may count otherwise.

T1: EsCas13d, nuclease-dead (Eubacterium siraeum, UniProt B0MS50, R295A;H300A;R849A;H854A)
T1 sequence: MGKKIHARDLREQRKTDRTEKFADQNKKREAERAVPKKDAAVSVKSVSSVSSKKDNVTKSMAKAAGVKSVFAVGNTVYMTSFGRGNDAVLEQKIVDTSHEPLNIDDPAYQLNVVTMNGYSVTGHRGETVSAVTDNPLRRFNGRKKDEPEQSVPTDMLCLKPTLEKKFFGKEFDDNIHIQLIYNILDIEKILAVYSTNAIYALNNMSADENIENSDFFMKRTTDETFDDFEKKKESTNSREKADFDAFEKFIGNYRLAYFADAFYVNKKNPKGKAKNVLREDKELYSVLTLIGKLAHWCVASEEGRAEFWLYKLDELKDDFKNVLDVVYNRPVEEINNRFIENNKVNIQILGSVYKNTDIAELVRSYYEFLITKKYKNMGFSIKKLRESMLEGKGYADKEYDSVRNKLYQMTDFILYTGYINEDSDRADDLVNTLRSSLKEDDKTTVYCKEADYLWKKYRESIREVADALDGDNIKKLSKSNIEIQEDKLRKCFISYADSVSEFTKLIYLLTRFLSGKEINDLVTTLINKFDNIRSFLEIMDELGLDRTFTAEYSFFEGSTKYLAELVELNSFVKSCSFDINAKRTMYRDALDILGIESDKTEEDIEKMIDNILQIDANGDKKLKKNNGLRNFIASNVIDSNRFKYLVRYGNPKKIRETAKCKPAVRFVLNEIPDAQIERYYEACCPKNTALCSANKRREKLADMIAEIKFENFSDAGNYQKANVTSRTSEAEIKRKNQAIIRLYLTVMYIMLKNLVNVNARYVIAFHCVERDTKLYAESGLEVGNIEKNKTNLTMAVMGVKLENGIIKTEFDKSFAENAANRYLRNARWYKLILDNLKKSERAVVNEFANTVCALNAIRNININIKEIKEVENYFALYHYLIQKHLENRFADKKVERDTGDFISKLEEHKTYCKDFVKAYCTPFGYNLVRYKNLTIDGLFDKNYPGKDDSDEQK

B1: target 2 MT 5'PFS GCA 3'PFS UCC (mixed)
RNA 1: CACCCGUGCAAAAUUGCAGGGGUCUAAAACCUUCUCCAAAUUGUUUCAUCCU
RNA 2: GGGAAUGGAUCCACAUCUACGAAUUCGCAAGGAUGAAACAAUUUGGAGAAGUCCAGAUCGGAAGAGCACACGU
B2: target 2 MT 5'PFS CAU 3'PFS UAA (mixed)
RNA 1: B1 RNA 1
RNA 2: B1 RNA 2 with G27C, C28A, A29U, C53A, C54A
B3: target 2 MT 5'PFS AAG 3'PFS CAU (mixed)
RNA 1: B1 RNA 1
RNA 2: B1 RNA 2 with G27A, C28A, A29G, U52C, C53A, C54U
B4: target 2 MT 5'PFS GCU 3'PFS CAC (mixed)
RNA 1: B1 RNA 1
RNA 2: B1 RNA 2 with A29U, U52C, C53A
B5: target 2 MT 5'PFS GCA 3'PFS UCU (mixed)
RNA 1: B1 RNA 1
RNA 2: B1 RNA 2 with C54U
B6: target 2 MT 5'PFS CUU 3'PFS UCG (mixed)
RNA 1: B1 RNA 1
RNA 2: B1 RNA 2 with G27C, C28U, A29U, C54G
B7: target 2 MT 5'PFS GAC 3'PFS UCG (mixed)
RNA 1: B1 RNA 1
RNA 2: B1 RNA 2 with C28A, A29C, C54G
B8: target 2 MT 5'PFS GAG 3'PFS CUG (mixed)
RNA 1: B1 RNA 1
RNA 2: B1 RNA 2 with C28A, A29G, U52C, C53U, C54G
B9: target 2 MT 5'PFS CUU 3'PFS UCC (mixed)
RNA 1: B1 RNA 1
RNA 2: B1 RNA 2 with G27C, C28U, A29U
B10: target 2 MT 5'PFS CAU 3'PFS UAC (mixed)
RNA 1: B1 RNA 1
RNA 2: B1 RNA 2 with G27C, C28A, A29U, C53A
B11: target 2 MT 5'PFS GUU 3'PFS CUU (mixed)
RNA 1: B1 RNA 1
RNA 2: B1 RNA 2 with C28U, A29U, U52C, C53U, C54U
B12: target 2 MT 5'PFS GCU 3'PFS CAG (mixed)
RNA 1: B1 RNA 1
RNA 2: B1 RNA 2 with A29U, U52C, C53A, C54G
B13: target 2 MT 5'PFS CAU 3'PFS UAU (mixed)
RNA 1: B1 RNA 1
RNA 2: B1 RNA 2 with G27C, C28A, A29U, C53A, C54U
B14: target 2 MT 5'PFS GUU 3'PFS CUA (mixed)
RNA 1: B1 RNA 1
RNA 2: B1 RNA 2 with C28U, A29U, U52C, C53U, C54A
B15: target 2 MT 5'PFS GAG 3'PFS CUC (mixed)
RNA 1: B1 RNA 1
RNA 2: B1 RNA 2 with C28A, A29G, U52C, C53U
B16: target 2 MT 5'PFS CGA 3'PFS UCA (mixed)
RNA 1: B1 RNA 1
RNA 2: B1 RNA 2 with G27C, C28G, C54A
B17: target 2 MT 5'PFS GAG 3'PFS CUA (mixed)
RNA 1: B1 RNA 1
RNA 2: B1 RNA 2 with C28A, A29G, U52C, C53U, C54A
B18: target 2 MT 5'PFS UAU 3'PFS CCA (mixed)
RNA 1: B1 RNA 1
RNA 2: B1 RNA 2 with G27U, C28A, A29U, U52C, C54A
B19: target 2 MT 5'PFS UGG 3'PFS UUC (mixed)
RNA 1: B1 RNA 1
RNA 2: B1 RNA 2 with G27U, C28G, A29G, C53U
B20: target 2 MT 5'PFS UUU 3'PFS CCG (mixed)
RNA 1: B1 RNA 1
RNA 2: B1 RNA 2 with G27U, C28U, A29U, U52C, C54G
B21: target 2 MT 5'PFS AGU 3'PFS AUA (mixed)
RNA 1: B1 RNA 1
RNA 2: B1 RNA 2 with G27A, C28G, A29U, U52A, C53U, C54A
B22: target 2 MT 5'PFS GGU 3'PFS CUA (mixed)
RNA 1: B1 RNA 1
RNA 2: B1 RNA 2 with C28G, A29U, U52C, C53U, C54A
B23: target 2 MT 5'PFS GUU 3'PFS CUC (mixed)
RNA 1: B1 RNA 1
RNA 2: B1 RNA 2 with C28U, A29U, U52C, C53U
B24: target 2 MT 5'PFS GGU 3'PFS CUG (mixed)
RNA 1: B1 RNA 1
RNA 2: B1 RNA 2 with C28G, A29U, U52C, C53U, C54G
B25: target 2 MT 5'PFS GUA 3'PFS UUC (mixed)
RNA 1: B1 RNA 1
RNA 2: B1 RNA 2 with C28U, C53U
B26: target 2 MT 5'PFS AGU 3'PFS AUU (mixed)
RNA 1: B1 RNA 1
RNA 2: B1 RNA 2 with G27A, C28G, A29U, U52A, C53U, C54U
B27: target 2 MT 5'PFS UAU 3'PFS CCG (mixed)
RNA 1: B1 RNA 1
RNA 2: B1 RNA 2 with G27U, C28A, A29U, U52C, C54G
B28: target 2 MT 5'PFS CUU 3'PFS UCA (mixed)
RNA 1: B1 RNA 1
RNA 2: B1 RNA 2 with G27C, C28U, A29U, C54A
B29: target 2 MT 5'PFS GAC 3'PFS UCA (mixed)
RNA 1: B1 RNA 1
RNA 2: B1 RNA 2 with C28A, A29C, C54A
B30: target 2 MT 5'PFS AGG 3'PFS ACG (mixed)
RNA 1: B1 RNA 1
RNA 2: B1 RNA 2 with G27A, C28G, A29G, U52A, C54G
B31: target 2 MT 5'PFS CAU 3'PFS UAG (mixed)
RNA 1: B1 RNA 1
RNA 2: B1 RNA 2 with G27C, C28A, A29U, C53A, C54G
B32: target 2 MT 5'PFS GGU 3'PFS CUC (mixed)
RNA 1: B1 RNA 1
RNA 2: B1 RNA 2 with C28G, A29U, U52C, C53U
B33: target 2 MT 5'PFS GUA 3'PFS UUU (mixed)
RNA 1: B1 RNA 1
RNA 2: B1 RNA 2 with C28U, C53U, C54U
B34: target 2 MT 5'PFS CUU 3'PFS UCU (mixed)
RNA 1: B1 RNA 1
RNA 2: B1 RNA 2 with G27C, C28U, A29U, C54U
B35: target 1 G15U,A16G (mixed)
RNA 1: CACCCGUGCAAAAAUGCAGGGGUCUAAAACUGAGCGGAUAACCUCUCUAUGG
RNA 2: GGGAAUGGAUCCACAUCUACGAAUUCGUACCAUAGGUAGGUUAUCCGCUCACCGAGAUCGGAAGAGCACACGU
B36: target 1 del4,del7 (mixed)
RNA 1: B35 RNA 1
RNA 2: GGGAAUGGAUCCACAUCUACGAAUUCGUACCAUAGAGAGGUUAUCGUCACCGAGAUCGGAAGAGCACACGU
B37: target 1 insA 3' of 21,insU 3' of 13 (mixed)
RNA 1: B35 RNA 1
RNA 2: GGGAAUGGAUCCACAUCUACGAAUUCGUACCAAUAGAGAGUGUUAUCCGCUCACCGAGAUCGGAAGAGCACACGU
B38: target 1 U3G,U19A (mixed)
RNA 1: B35 RNA 1
RNA 2: B35 RNA 2 with U33A, G36A, U37G, U49G

Target: T1, EsCas13d, nuclease-dead
Assay: crRNA (strand 1, pre-loaded); Mg2+; 40 mM Tris-HCl pH 7.5, 150 mM NaCl, 6 mM MgCl2, 1 mM DTT, 0.1% Tween-20, 0.2 mg/ml BSA; 25 C; 10 min per concentration, then washed
Settings: tags: His6-TwinStrep-SUMO cleaved; N-terminal SNAP kept (SNAP-Surface 488); label: 3' end held by stalled T7 RNA polymerase

Binder | Kd [µM]
B1 | 0.032 ± 0.004
B2 | 0.0047 ± 0.0008
B3 | 0.0034 ± 0.0005
B4 | 0.01 ± 0.0017
B5 | 0.027 ± 0.012
B6 | 0.0046 ± 0.0004
B7 | 0.0152 ± 0.0027
B8 | 0.0081 ± 0.0008
B9 | 0.0082 ± 0.0005
B10 | 0.0037 ± 0.0007
B11 | 0.0166 ± 0.0016
B12 | 0.017 ± 0.004
B13 | 0.004 ± 0.0004
B14 | 0.014 ± 0.0019
B15 | 0.0113 ± 0.0012
B16 | ~0.026
B17 | 0.0079 ± 0.0011
B18 | 0.037 ± 0.015
B19 | 0.0192 ± 0.0028

Binder | Kd [µM]
B20 | 0.0098 ± 0.001
B21 | 0.0103 ± 0.0015
B22 | 0.0126 ± 0.0014
B23 | 0.0204 ± 0.0023
B24 | 0.014 ± 0.0013
B25 | 0.042 ± 0.011
B26 | 0.0121 ± 0.0021
B27 | 0.055 ± 0.008
B28 | 0.0048 ± 0.0005
B29 | 0.0138 ± 0.0034
B30 | 0.0067 ± 0.0006
B31 | 0.0056 ± 0.0012
B32 | 0.0178 ± 0.0019
B33 | 0.062 ± 0.018
B34 | 0.0081 ± 0.0008
B35 | 0.0271 ± 0.0022
B36 | 0.00534 ± 0.00024
B37 | 0.026 ± 0.009
B38 | 0.045 ± 0.01
